The data set concerns the molecule itself. Kind of data set: SEC; Superose 6 10/300 increase GL equilibrated in detergent-free buffer, after elution in 0.005% MNG/GDN/CHS. On the technique in general: Size exclusion chromatography separates by hydrodynamic size, large species first.

B1: full-length mGluR2 (FLAG-tagged, purified in detergent micelles) (receptor, rat, UniProt P31421 19-872, looked up)
chain: EGPAKKVLTLEGDLVLGGLFPVHQKGGPAEECGPVNEHRGIQRLEAMLFALDRINRDPHLLPGVRLGAHILDSCSKDTHALEQALDFVRASLSRGADGSRHICPDGSYATHSDAPTAVTGVIGGSYSDVSIQVANLLRLFQIPQISYASTSAKLSDKSRYDYFARTVPPDFFQAKAMAEILRFFNWTYVSTVASEGDYGETGIEAFELEARARNICVATSEKVGRAMSRAAFEGVVRALLQKPSARVAVLFTRSEDARELLAATQRLNASFTWVASDGWGALESVVAGSERAAEGAITIELASYPISDFASYFQSLDPWNNSRNPWFREFWEERFHCSFRQRDCAAHSLRAVPFEQESKIMFVVNAVYAMAHALHNMHRALCPNTTHLCDAMRPVNGRRLYKDFVLNVKFDAPFRPADTDDEVRFDRFGDGIGRYNIFTYLRAGSGRYRYQKVGYWAEGLTLDTSFIPWASPSAGPLPASRCSEPCLQNEVKSVQPGEVCCWLCIPCQPYEYRLDEFTCADCGLGYWPNASLTGCFELPQEYIRWGDAWAVGPVTIACLGALATLFVLGVFVRHNATPVVKASGRELCYILLGGVFLCYCMTFVFIAKPSTAVCTLRRLGLGTAFSVCYSALLTKTNRIARIFGGAREGAQRPRFISPASQVAICLALISGQLLIVAAWLVVEAPGTGKETAPERREVVTLRCNHRDASMLGSLAYNVLLIALCTLYAFKTRKCPENFNEAKFIGFTMYTTCIIWLAFLPIFYVTSSDYRVQTTTMCVSVSLSGSVVLGCLFAPKLHIILFQPQKNVVSHRAPTSRFGSAAPRASANLGQGSGSQFVPTVCNGREVVDSTTSSL
notes: also called full-length mGluR2 construct; full-length receptor
For the protein B1, the binding result is “binds”.

These data come from paper PMC12394075, “Domain coupling in activation of a family C GPCR” (Nature Chemical Biology, 2024).
